Source: paper PMC9133112, “The structural basis of Cdc7-Dbf4 kinase dependent targeting and phosphorylation of the MCM2-7 double hexamer” (Nature Communications, 2022)

T1: Mcm4 (Saccharomyces cerevisiae, UniProt P30665 1-933)
T1 construct: Mcm4, Saccharomyces cerevisiae, full length; Subunit of m2, written alone for the contacts seen in the cryo-EM structures
T1 sequence (looked up): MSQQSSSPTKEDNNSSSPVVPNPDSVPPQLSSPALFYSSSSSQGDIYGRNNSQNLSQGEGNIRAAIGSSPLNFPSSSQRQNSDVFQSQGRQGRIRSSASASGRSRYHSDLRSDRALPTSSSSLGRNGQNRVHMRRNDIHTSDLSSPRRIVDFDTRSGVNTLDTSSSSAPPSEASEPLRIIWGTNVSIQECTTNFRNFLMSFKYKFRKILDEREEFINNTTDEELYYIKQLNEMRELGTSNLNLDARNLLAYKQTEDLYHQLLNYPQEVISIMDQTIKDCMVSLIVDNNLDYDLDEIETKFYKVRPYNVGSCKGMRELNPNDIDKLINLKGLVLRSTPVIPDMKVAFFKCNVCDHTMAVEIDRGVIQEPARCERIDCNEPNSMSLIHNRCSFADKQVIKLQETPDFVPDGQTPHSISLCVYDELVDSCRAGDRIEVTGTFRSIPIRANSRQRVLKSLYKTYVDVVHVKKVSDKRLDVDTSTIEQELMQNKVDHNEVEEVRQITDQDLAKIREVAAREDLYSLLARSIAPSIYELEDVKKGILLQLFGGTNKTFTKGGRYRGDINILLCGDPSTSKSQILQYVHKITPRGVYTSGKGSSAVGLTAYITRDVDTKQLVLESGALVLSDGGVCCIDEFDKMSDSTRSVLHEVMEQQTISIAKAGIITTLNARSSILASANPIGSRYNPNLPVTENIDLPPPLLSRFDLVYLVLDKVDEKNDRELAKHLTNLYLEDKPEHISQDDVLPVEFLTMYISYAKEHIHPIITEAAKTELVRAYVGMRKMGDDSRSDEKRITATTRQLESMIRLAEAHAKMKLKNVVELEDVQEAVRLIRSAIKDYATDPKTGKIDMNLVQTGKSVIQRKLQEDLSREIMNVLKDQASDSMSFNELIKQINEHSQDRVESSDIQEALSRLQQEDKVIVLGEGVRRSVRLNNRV


Key:
Experiment in all cases: cryo-EM structure; MD-(ATPγS): 250 nM DH released from beads by AluI + 750 nM DDK, 10 min 24 °C, buffer C with 3 mM ATPγS; GraFix glycerol gradient with glutaraldehyde; states I-III
Conditions in all cases: both partners purified
MCM2-7 double hexamer = target: T2, MCM2-7 double hexamer (Saccharomyces cerevisiae, UniProt P29469 1-868; P24279 1-971; P30665 1-933; P29496 1-775; P53091 1-1017; P38132 …)
T2 construct: Mcm2, Saccharomyces cerevisiae, full length; Mcm3, Saccharomyces cerevisiae, full length; Mcm4, Saccharomyces cerevisiae, full length; Mcm5, Saccharomyces cerevisiae, full length; Mcm6, Saccharomyces cerevisiae, full length; Mcm7, Saccharomyces cerevisiae, full length; Two head-to-head MCM2-7 hexamers assembled on origin DNA; becomes (thio-)phosphorylated by DDK on Mcm2, Mcm4, Mcm6 (and Mcm7) …

Mcm4 = target: T1, Mcm4
Mcm3 = target: T3, Mcm3 (Saccharomyces cerevisiae, UniProt P24279 1-971)
T3 construct: Mcm3, Saccharomyces cerevisiae, full length; Subunit of m2, written alone for the contacts seen in the cryo-EM structures
T3 sequence (P24279 whole entry): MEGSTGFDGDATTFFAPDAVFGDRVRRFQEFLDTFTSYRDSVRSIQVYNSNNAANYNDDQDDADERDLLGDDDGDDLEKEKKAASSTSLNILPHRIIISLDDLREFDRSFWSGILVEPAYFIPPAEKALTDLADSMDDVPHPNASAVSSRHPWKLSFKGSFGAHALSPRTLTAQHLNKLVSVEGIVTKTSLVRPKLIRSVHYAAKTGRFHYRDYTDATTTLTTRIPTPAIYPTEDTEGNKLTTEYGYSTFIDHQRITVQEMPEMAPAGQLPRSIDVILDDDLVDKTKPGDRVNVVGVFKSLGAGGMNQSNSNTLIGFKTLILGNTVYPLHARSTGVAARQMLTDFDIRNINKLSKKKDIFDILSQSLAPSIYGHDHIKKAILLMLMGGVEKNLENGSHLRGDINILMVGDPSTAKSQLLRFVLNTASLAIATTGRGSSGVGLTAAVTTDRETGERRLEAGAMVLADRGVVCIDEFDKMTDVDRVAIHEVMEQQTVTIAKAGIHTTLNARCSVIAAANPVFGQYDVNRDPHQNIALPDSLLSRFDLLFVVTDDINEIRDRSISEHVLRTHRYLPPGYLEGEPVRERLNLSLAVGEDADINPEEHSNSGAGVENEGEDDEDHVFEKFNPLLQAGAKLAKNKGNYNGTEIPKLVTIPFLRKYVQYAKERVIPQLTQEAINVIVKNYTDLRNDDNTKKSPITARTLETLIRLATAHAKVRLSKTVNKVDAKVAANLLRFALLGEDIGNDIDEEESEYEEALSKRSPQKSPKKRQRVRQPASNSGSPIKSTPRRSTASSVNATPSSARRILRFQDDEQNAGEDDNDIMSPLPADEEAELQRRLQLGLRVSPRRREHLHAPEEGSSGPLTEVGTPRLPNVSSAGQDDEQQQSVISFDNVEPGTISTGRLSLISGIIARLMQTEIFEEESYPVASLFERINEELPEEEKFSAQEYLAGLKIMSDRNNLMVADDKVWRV

T2 sequence (P29469 whole entry, chain 1 of 4): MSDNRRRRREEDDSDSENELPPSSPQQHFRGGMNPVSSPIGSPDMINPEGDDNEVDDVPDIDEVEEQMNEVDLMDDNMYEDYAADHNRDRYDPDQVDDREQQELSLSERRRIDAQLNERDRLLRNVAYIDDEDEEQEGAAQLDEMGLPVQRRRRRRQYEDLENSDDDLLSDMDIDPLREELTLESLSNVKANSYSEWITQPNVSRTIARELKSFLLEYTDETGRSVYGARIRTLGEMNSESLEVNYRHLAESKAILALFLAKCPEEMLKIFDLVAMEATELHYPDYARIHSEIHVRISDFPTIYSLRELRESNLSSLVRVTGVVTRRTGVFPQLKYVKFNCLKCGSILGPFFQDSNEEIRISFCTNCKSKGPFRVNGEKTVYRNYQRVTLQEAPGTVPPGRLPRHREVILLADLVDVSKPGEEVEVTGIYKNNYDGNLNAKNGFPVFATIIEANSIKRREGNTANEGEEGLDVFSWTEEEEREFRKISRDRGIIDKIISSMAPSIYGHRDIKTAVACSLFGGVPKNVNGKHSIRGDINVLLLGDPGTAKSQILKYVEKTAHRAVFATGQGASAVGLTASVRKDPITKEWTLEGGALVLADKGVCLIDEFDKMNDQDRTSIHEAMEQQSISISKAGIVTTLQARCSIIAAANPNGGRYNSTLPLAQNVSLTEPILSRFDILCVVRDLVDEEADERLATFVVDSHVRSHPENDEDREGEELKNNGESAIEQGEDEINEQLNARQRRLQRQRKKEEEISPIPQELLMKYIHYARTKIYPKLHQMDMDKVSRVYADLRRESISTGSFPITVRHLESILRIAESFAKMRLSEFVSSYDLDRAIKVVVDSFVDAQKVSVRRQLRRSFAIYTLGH
T2 sequence (P24279 whole entry, chain 2 of 4): as the sequence (P24279 whole entry) above
T2 sequence (P29496 whole entry, chain 4 of 4): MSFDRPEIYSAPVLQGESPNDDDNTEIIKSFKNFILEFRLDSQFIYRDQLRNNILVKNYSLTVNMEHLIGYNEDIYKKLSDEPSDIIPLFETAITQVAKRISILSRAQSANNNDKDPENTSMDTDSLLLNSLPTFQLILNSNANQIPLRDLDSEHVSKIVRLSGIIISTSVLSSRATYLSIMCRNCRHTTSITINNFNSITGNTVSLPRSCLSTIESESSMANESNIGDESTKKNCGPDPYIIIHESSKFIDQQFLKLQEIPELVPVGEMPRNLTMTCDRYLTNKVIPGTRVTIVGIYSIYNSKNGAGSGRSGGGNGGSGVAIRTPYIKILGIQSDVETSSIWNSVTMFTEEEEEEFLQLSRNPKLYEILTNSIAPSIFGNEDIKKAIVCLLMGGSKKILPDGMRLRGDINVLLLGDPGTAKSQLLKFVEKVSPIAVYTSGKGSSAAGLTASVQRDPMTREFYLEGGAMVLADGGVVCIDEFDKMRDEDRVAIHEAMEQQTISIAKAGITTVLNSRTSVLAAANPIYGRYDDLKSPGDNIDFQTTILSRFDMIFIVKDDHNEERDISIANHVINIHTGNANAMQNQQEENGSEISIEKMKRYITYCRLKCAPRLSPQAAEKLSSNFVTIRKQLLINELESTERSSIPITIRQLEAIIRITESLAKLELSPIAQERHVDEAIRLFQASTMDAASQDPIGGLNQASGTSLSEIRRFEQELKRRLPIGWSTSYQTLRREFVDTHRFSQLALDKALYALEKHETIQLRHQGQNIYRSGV
T2 sequence (P53091 whole entry, chain 5 of 4): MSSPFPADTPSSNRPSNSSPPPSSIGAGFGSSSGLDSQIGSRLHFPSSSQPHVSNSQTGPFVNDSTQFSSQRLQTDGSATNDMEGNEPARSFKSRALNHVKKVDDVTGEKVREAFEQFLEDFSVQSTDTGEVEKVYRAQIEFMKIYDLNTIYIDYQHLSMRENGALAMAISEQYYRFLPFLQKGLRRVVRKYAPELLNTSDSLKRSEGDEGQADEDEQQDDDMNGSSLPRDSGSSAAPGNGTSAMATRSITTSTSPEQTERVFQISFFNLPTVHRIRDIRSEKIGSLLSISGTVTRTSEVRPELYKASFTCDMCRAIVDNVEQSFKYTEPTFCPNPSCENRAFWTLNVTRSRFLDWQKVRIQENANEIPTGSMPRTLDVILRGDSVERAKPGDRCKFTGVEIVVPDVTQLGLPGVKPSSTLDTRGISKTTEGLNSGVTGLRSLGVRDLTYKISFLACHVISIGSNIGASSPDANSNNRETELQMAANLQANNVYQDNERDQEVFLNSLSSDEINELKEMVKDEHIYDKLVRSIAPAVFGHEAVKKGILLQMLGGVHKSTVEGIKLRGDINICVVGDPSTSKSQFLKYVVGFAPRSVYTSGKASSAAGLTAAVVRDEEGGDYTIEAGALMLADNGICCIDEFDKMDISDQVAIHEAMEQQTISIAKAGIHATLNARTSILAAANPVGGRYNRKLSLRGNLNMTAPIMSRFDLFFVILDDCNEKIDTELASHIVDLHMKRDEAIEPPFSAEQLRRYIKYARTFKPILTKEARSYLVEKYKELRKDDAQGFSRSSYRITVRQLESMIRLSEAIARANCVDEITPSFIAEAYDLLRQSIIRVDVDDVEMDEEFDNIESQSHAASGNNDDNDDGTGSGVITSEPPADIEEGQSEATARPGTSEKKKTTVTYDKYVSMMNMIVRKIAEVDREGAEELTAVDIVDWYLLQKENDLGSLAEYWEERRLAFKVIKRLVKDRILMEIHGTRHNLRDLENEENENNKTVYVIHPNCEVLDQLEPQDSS

| stoichiometry N (MCM2-7 double hexamer) | binding result (Mcm4) | binding result (Mcm3) | Binder |
| --- | --- | --- | --- |
| 2 DDK per MCM2-7 double hexamer | – | – | Dbf4-dependent Cdc7 kinase (DDK), wild type (complex, Saccharomyces cerevisiae, Cdc7 serine/threonine kinase, Saccharomyces cerevisiae, full length; Dbf4 (dumbbell former 4), Saccharomyces cerevisiae, full length; An MBP tag was cleaved with PreScission Protease; Treated with lambda phosphatase during purification; autophosphorylates (thio-phosphorylates with ATPγS) in the assays; also called Cdc7-Dbf4; WT DDK; source: budding yeast cells, purified (amylose resin, lambda …)) chain 1: MTSKTKNIDDIPPEIKEEMIQLYHDLPGIENEYKLIDKIGEGTFSSVYKAKDITGKITKKFASHFWNYGSNYVALKKIYVTSSPQRIYNELNLLYIMTGSSRVAPLCDAKRVRDQVIAVLPYYPHEEFRTFYRDLPIKGIKKYIWELLRALKFVHSKGIIHRDIKPTNFLFNLELGRGVLVDFGLAEAQMDYKSMISSQNDYDNYANTNHDGGYSMRNHEQFCPCIMRNQYSPNSHNQTPPMVTIQNGKVVHLNNVNGVDLTKGYPKNETRRIKRANRAGTRGFRAPEVLMKCGAQSTKIDIWSVGVILLSLLGRRFPMFQSLDDADSLLELCTIFGWKELRKCAALHGLGFEASGLIWDKPNGYSNGLKEFVYDLLNKECTIGTFPEYSVAFETFGFLQQELHDRMSIEPQLPDPKTNMDAVDAYELKKYQEEIWSDHYWCFQVLEQCFEMDPQKRSSAEDLLKTPFFNELNENTYLLDGESTDEDDVVSSSEADLLDKDVLLISE chain 2: MVSPTKMIIRSPLKETDTNLKHNNGIAASTTAAGHLNVFSNDNNCNNNNTTESFPKKRSLERLELQQQQHLHEKKRARIERARSIEGAVQVSKGTGLKNVEPRVTPKELLEWQTNWKKIMKRDSRIYFDITDDVEMNTYNKSKMDKRRDLLKRGFLTLGAQITQFFDTTVTIVITRRSVENIYLLKDTDILSRAKKNYMKVWSYEKAARFLKNLDVDLDHLSKTKSASLAAPTLSNLLHNEKLYGPTDRDPRTKRDDIHYFKYPHVYLYDLWQTWAPIITLEWKPQELTNLDELPYPILKIGSFGRCPFIGDRNYDESSYKRVVKRYSRDKANKKYALQLRALFQYHADTLLNTSSVNDQTKNLIFIPHTCNDSTKSFKKWMQEKAKNFEKTELKKTDDSAVQDVRNEHADQTDEKNSILLNETETKEPPLKEEKENKQSIAEESNKYPQRKELAATPKLNHPVLATFARQETEEVPDDLCTLKTKSRQAFEIKASGAHQSNDVATSFGNGLGPTRASVMSKNMKSLSRLMVDRKLGVKQTNGNNKNYTATIATTAETSKENRHRLDFNALKKDEAPSKETGKDSAVHLETNRKPQNFPKVATKSVSADSKVHNDIKITTTESPTASKKSTSTNVTLHFNAQTAQTAQPVKKETVKNSGYCENCRVKYESLEQHIVSEKHLSFAENDLNFEAIDSLIENLRFQI |
| – | binds | binds | Mcm7 (natural protein, Saccharomyces cerevisiae, UniProt P38132 1-845, looked up, Mcm7, Saccharomyces cerevisiae, full length; Subunit of m2, written alone for the contacts seen in the cryo-EM structures) MSAALPSIQLPVDYNNLFNEITDFLVTFKQDTLSSDATRNENEDENLDAENIEQHLLEKGPKYMAMLQKVANRELNSVIIDLDDILQYQNEKFLQGTQADDLVSAIQQNANHFTELFCRAIDNNMPLPTKEIDYKDDVLDVILNQRRLRNERMLSDRTNEIRSENLMDTTMDPPSSMNDALREVVEDETELFPPNLTRRYFLYFKPLSQNCARRYRKKAISSKPLSVRQIKGDFLGQLITVRGIITRVSDVKPAVEVIAYTCDQCGYEVFQEVNSRTFTPLSECTSEECSQNQTKGQLFMSTRASKFSAFQECKIQELSQQVPVGHIPRSLNIHVNGTLVRSLSPGDIVDVTGIFLPAPYTGFKALKAGLLTETYLEAQFVRQHKKKFASFSLTSDVEERVMELITSGDVYNRLAKSIAPEIYGNLDVKKALLLLLVGGVDKRVGDGMKIRGDINVCLMGDPGVAKSQLLKAICKISPRGVYTTGKGSSGVGLTAAVMKDPVTDEMILEGGALVLADNGICCIDEFDKMDESDRTAIHEVMEQQTISISKAGINTTLNARTSILAAANPLYGRYNPRLSPLDNINLPAALLSRFDILFLMLDIPSRDDDEKLAEHVTYVHMHNKQPDLDFTPVEPSKMREYIAYAKTKRPVMSEAVNDYVVQAYIRLRQDSKREMDSKFSFGQATPRTLLGIIRLSQALAKLRLADMVDIDDVEEALRLVRVSKESLYQETNKSKEDESPTTKIFTIIKKMLQETGKNTLSYENIVKTVRLRGFTMLQLSNCIQEYSYLNVWHLINEGNTLKFVDDGTMDTDQEDSLVSTPKLAPQTTASANVSAQDSDIDLQDA |
